Test results taken from the supplement of paper PMC7877785.
± gives the uncertainty stated by the source.

Assay: self-splicing fitness, log relative to wild type (ln ratio); higher = more splicing; Tetrahymena group I intron in knt gene, E. coli kanamycin selection, DiMSum; sequences stand for … in CUCUCU…GGAGGGAAAAGUUAUCAGGCAUGCACCUGGUAGCUAGUCUUUAAACCAAUAGAUUGCAUCGGUUUAAAAGGCAAGACCGUCAAAUUGCGGGAAAGGGGUCAACAGCCGUUCAGUACCAAGUCUCAGGGGAAACUUUGAGAUGGCCUUGCAAAGGGUAUGGUAAUAAGCUGACGGACAUGGUCCUAACCACGCAGCCAAGUCCUAAGUCAACAGAUCUUCUGUUGAUAUGGAUGCAGUUCACAGACUAAAUGUCGGUCGGGGAAGAUGUAUUCUUCUCAUAAGAUAUAGUCGGACCUCUCCUUAAUGGGAGCUAGCGGAUGAAGUGAUGCAACACUGGAGCCGCUGGGAACUAAUUUGUAUGCGAAAGUAUAUUGAUUAGUUUUGGAGUACUCGUGGUCG
Outline: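 Pooled colonies went to amplicon sequencing on an Illumina HiSeq 2500 after six replicate transformations. The plates were LB agar with 100 μg/mL carbenicillin, 50 μM IPTG and 0.2% rhamnose, with or without 25 μg/mL kanamycin, incubated overnight at 37°C or 30°C. The E. coli BL21(DE3) library had all eight P1ex-region intron nucleotides randomised, the intron placed in the knt kanamycin-resistance gene on pET-22b(+). DiMSum fitness is the error-weighted combination of replicate fold changes, kanamycin against none, normalised to wild type.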

Sequence	self-splicing fitness (ln) (30 °C)	self-splicing fitness (ln) (37 °C)
AAUUAGCAAUAUUACGCUAA	-2.5 ± 0.28	-2.27 ± 0.24
AAUUAGCAAUAUUACGCUGG	-1.35 ± 0.17	-1.01 ± 0.2
AAUUAGCAAUAUUACGCUUG	-0.701 ± 0.07	0.227 ± 0.095
AAUUAGCAAUAUUACGGACG	-1.29 ± 0.16	0.266 ± 0.12
AAUUAGCAAUAUUACGGAGU	-2.69 ± 0.2	-1.02 ± 0.17
AAUUAGCAAUAUUACGGAUG	-2.06 ± 0.12	-0.146 ± 0.15
AAUUAGCAAUAUUACGGUAC	-2.42 ± 0.16	-1.22 ± 0.2
AAUUAGCAAUAUUACGGUCA	0.31 ± 0.12	-0.629 ± 0.098
AAUUAGCAAUAUUACGGUGG	-2.7 ± 0.18	-1.96 ± 0.22
AAUUAGCAAUAUUACGUGAA	-2.4 ± 0.15	-1.22 ± 0.17
AAUUAGCAAUAUUACGUGCC	-1.48 ± 0.082	-0.857 ± 0.11
AAUUAGCAAUAUUACGUGCU	-2.18 ± 0.12	-1.33 ± 0.11
AAUUAGCAAUAUUACGUUUG	-3.16 ± 0.22	-2.9 ± 0.27
ACAAAGCAAUAUUACGAAUC	-2.69 ± 0.19	-1.66 ± 0.17
ACAAAGCAAUAUUACGACCC	-0.934 ± 0.16	0.532 ± 0.21
ACAAAGCAAUAUUACGAGCG	-0.894 ± 0.084	0.57 ± 0.096
ACAAAGCAAUAUUACGAGUA	-3.03 ± 0.16	-1.7 ± 0.11
ACAAAGCAAUAUUACGAUAC	-2.89 ± 0.2	-2.29 ± 0.16
ACAAAGCAAUAUUACGAUCA	-0.675 ± 0.066	-0.735 ± 0.093
ACAAAGCAAUAUUACGAUCC	-1.55 ± 0.071	0.389 ± 0.1
ACAAAGCAAUAUUACGCAAU	-1.87 ± 0.078	-1.6 ± 0.092

Sequence	self-splicing fitness (ln) (30 °C)	self-splicing fitness (ln) (37 °C)
ACAAAGCAAUAUUACGCCGA	-2.13 ± 0.15	-0.465 ± 0.13
ACAAAGCAAUAUUACGCGGG	-2.47 ± 0.09	-1.01 ± 0.09
ACAAAGCAAUAUUACGCUAC	-3.07 ± 0.28	-2.43 ± 0.33
ACAAAGCAAUAUUACGCUGC	-3.63 ± 0.25	-1.26 ± 0.21
ACAAAGCAAUAUUACGCUUU	-3.64 ± 0.24	-2.16 ± 0.17
ACAAAGCAAUAUUACGGAAC	-3.33 ± 0.13	-2.43 ± 0.15
ACAAAGCAAUAUUACGGAGC	-3.17 ± 0.13	-2.62 ± 0.15
ACAAAGCAAUAUUACGGAUA	-2.14 ± 0.2	-1.68 ± 0.17
ACAAAGCAAUAUUACGGCAC	-1.61 ± 0.079	-0.954 ± 0.12
ACAAAGCAAUAUUACGGCAG	-1.1 ± 0.064	-0.658 ± 0.088
ACAAAGCAAUAUUACGGGUA	-1.86 ± 0.09	-0.94 ± 0.087
ACAAAGCAAUAUUACGGGUC	-3.18 ± 0.14	-1.76 ± 0.2
ACAAAGCAAUAUUACGGUGC	-2.89 ± 0.12	-2.32 ± 0.12
ACAAAGCAAUAUUACGUAUU	-1.94 ± 0.086	-1.18 ± 0.11
ACAAAGCAAUAUUACGUCAA	-3.26 ± 0.25	-1.66 ± 0.14
ACAAAGCAAUAUUACGUCUC	-4.03 ± 0.18	-2.09 ± 0.14
ACAAAGCAAUAUUACGUUAG	-2.73 ± 0.11	-2.69 ± 0.17
ACAAAGCAAUAUUACGUUGG	-2.44 ± 0.068	-1.57 ± 0.079
ACACAGCAAUAUUACGAAUC	-3.22 ± 0.15	-2.63 ± 0.21
ACACAGCAAUAUUACGACCA	-0.337 ± 0.085	0.147 ± 0.093
ACACAGCAAUAUUACGACGG	-0.479 ± 0.073	-0.0997 ± 0.11
